Article PMC11462610, “PpBBX32 and PpZAT5 modulate temperature-dependent and tissue-specific anthocyanin accumulation in peach fruit”

Tests used:
[1] = target: T1, PpBBX32 (Prunus persica, UniProt A0A251PTV0 1-264); assay: EMSA; shift weakened by increasing cold probe; LightShift Chemiluminescent EMSA kit (Thermo), biotin-labeled probes; buffer, salt, pH and temperature not stated; settings: protein: recombinant; tags: N-terminal His-trigger factor (pColdTF fusion); label: biotin; blunt
T1 sequence: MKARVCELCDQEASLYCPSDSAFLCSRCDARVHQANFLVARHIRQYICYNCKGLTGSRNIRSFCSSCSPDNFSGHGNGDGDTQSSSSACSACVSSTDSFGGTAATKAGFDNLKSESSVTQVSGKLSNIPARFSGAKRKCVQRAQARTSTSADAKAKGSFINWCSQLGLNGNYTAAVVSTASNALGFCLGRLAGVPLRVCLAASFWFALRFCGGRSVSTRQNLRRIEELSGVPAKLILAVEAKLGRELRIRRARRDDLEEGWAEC

[2] = target: T2, PpZAT5 (Prunus persica, UniProt A0A251NAP4 1-283); assay: as above; settings: protein: recombinant; tags: N-terminal His-trigger factor (pColdTF fusion); label: biotin; blunt
T2 sequence: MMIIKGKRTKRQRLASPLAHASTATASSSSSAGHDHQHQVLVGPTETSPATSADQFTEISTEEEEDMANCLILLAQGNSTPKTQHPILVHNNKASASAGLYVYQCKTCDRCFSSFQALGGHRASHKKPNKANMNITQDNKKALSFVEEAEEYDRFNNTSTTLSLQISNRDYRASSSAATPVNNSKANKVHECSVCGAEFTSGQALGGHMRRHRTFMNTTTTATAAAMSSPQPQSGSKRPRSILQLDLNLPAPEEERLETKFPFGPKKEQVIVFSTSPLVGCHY

[3] = target: T2, PpZAT5; assay: EMSA; LightShift Chemiluminescent EMSA kit (Thermo), biotin-labeled probes; buffer, salt, pH and temperature not stated; settings: protein: recombinant; tags: N-terminal His-trigger factor (pColdTF fusion); blunt

B1: proPpMYB10.1 G-box1&2 (dsDNA)
DNA 1: CAGCTGTGATACGTGAACCACACGTGCTGACACTA
DNA 2: TAGTGTCAGCACGTGTGGTTCACGTATCACAGCTG
- binding result [1]: binds

B2: proPpMYB10.1 ACT core element 7 (dsDNA)
DNA 1: TCTTAGCTAACTGTTACTGTTATCAAG
DNA 2: CTTGATAACAGTAACAGTTAGCTAAGA
- binding result [2]: binds

B3: proPpMYB10.1 ACT core element 7 mutant (dsDNA)
DNA 1: TCTTAGCTAGTTACCCTAGTTATCAAG
DNA 2: CTTGATAACTAGGGTAACTAGCTAAGA
- binding result [3]: no binding
